Experimental data reported in patent US20260207704A1, “STAPLED PEPTIDES AND METHODS THEREOF” (priority 2022, published 2026).
*1 amine or outer side, *2 acyl side, *3 side chain or, on linkers, in order; H or OH if unused. Bridges are numbered along the chain shown (N, C = ends). Primed or numbered codes have the meaning given here. [ ]: non-standard residue; d: D form. PyrS2(6) = (S)-3-amino-1-((pent-4-en-1-yloxy)carbonyl)pyrrolidine-3-carboxylic acid, stapled with another olefin-containing amino acid residue through the olefin group, O=C(OCCCC=[*:3])N1CC[C@@](N[*:1])(C(=O)[*:2])C1; B5(4) = 2-amino-2-(pent-4-en-1-yl)hept-6-enoic acid, stapled through each of its two olefin groups with other olefin-containing amino acid residues, O=C(C(CCCC=[*:3])(CCCC=[*:4])N[*:1])[*:2]; PyrS2″ = (S)-3-amino-1-((pent-4-en-1-yloxy)carbonyl)pyrrolidine-3-carboxylic acid (olefin stapling residue), C=CCCCOC(=O)N1CC[C@@](N[*:1])(C(=O)[*:2])C1; TriAzLys = (S)-2-amino-5-(1H-1,2,3-triazol-1-yl)pentanoic acid, stapled through triazole 4-position, O=C([C@H](CCCn1cc([*:3])nn1)N[*:1])[*:2]; PyrS2(5) = (S)-3-amino-1-((pent-4-en-1-yloxy)carbonyl)pyrrolidine-3-carboxylic acid, C=CCCCOC(=O)N1CC[C@@](N[*:1])(C(=O)[*:2])C1; B5″ = 2-amino-2-(pent-4-en-1-yl)hept-6-enoic acid (bis-olefin stapling residue), C=CCCCC(CCCC=C)(N[*:1])C(=O)[*:2]; TriAzLys″ = azidolysine residue closed into triazole staple, O=C([C@H](CCCCn1cc([*:3])nn1)N[*:1])[*:2]; Phe(3-COOH) = N[C@@H](Cc1cccc(C(=O)O)c1)C(=O)O; 2F3MeF = Cc1cccc(C[C@H](N[*:1])C(=O)[*:2])c1F; Abu(4-yl) = O=C([C@H](CC[*:3])N[*:1])[*:2]; Bta = N[C@@H](Cc1csc2ccccc12)C(=O)O; αAllylPro = C=CC[C@@]1(C(=O)O)CCCN1; tBuAla = CC(C)(C)C[C@H](N)C(=O)O; 3Thi = N[C@@H](Cc1ccsc1)C(=O)O; TriAzLys(3) = not defined here; dGlnR = not defined here; GlnR = not defined here; sAla = not defined here; PL3 = not defined here

Legend:
beta-catenin (human) [1] = experiment: cell-based or functional assay
beta-catenin (human) [2] = experiment: fluorescence polarization

beta-catenin (human), sequence (B6V8E6 146-665 limits assumed): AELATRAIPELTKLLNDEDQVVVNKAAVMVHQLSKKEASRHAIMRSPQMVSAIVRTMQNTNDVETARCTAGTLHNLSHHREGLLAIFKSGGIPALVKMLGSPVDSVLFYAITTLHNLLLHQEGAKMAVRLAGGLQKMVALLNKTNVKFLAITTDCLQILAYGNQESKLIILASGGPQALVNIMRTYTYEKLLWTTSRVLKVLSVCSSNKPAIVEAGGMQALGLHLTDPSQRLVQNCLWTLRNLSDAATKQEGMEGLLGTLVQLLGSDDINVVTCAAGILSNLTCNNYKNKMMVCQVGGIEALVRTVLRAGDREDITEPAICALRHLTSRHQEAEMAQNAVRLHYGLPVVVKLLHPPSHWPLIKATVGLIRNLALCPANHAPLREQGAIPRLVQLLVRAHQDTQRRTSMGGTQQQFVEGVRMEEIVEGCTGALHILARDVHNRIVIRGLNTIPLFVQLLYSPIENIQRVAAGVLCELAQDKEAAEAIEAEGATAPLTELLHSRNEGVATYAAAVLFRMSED

Row | Binder | NanoBRET Abs IC50 (bin >3.0 uM) (beta-catenin (human) [1]) | IC50 (beta-catenin (human) [2]) | NanoBRET Abs IC50 (bin >1.5 uM) (beta-catenin (human) [1]) | NanoBRET Abs IC50 (beta-catenin (human) [1])
1 | Ac-[PL3]D[tBuAla][B5(4)]D[Phe(3-COOH)]AAF[TriAzLys″][PyrS2″][3Thi][Bta][sAla]-NH2 (triazole 10-14; not fully specified (bridges); printed as Ac-PL3-Asp-Npg-B5-Asp-3COOHF-Ala-Ala-Phe-TriAzLys*3-PyrS2-3Thi-BztA-sAla*3-NH2; reading uncertain) [I-19] | < 10000 nM | < 50 nM |  | 
2 | Ac-[αAllylPro]D[tBuAla][B5(4)]D[Phe(3-COOH)]AAF[sAla][PyrS2(6)][3Thi][Bta][TriAzLys(3)]-NH2 (triazole 10-14; not fully specified (bridges); printed as Ac-PL3-Asp-Npg-B5-Asp-3COOHF-Ala-Ala-Phe-sAla*3-PyrS2-3Thi-BztA-TriAzLys*3-NH2; reading uncertain) [I-24] | < 10000 nM | < 50 nM |  | 
3 | Ac-[αAllylPro]DL[B5″]D[Phe(3-COOH)]AAF[GlnR][PyrS2″][3Thi][Bta]K-NH2 (bridge 10-14; reading uncertain; also: PL3-B5 and PyrS2 links not placed, printed as Ac-PL3-Asp-Leu-B5-Asp-3COOHF-Ala-Ala-Phe-GlnR*3-PyrS2-3Thi-BztA-Lys*3-NH2) [I-16] | < 10000 nM | < 50 nM |  | 
4 | Ac-[αAllylPro]D[tBuAla][B5″]DDAAF[TriAzLys][PyrS2″][3Thi][Bta][Abu(4-yl)]-NH2 (triazole 10-14; also: PL3-B5 and PyrS2 links not placed) [I-17] |  | < 50 nM |  | > 10000 nM
5 | Ac-[PL3]D[tBuAla][B5(4)]D[Phe(3-COOH)]AAF[TriAzLys″][PyrS2″][2F3MeF][Bta][sAla]-NH2 (triazole 10-14; not fully specified (bridges); printed as Ac-PL3-Asp-Npg-B5-Asp-3COOHF-Ala-Ala-Phe-TriAzLys*3-PyrS2-2F3MeF-BztA-sAla*3-NH2; reading uncertain) [I-21] |  | < 50 nM | < 3000 nM | 

Further lines, results first:

Row | NanoBRET Abs IC50 (bin >3.0 uM) (beta-catenin (human) [1]) | IC50 (beta-catenin (human) [2]) | NanoBRET Abs IC50 (bin >1.5 uM) (beta-catenin (human) [1]) | NanoBRET Abs IC50 (beta-catenin (human) [1]) | Binder
6 | < 10000 nM | < 50 nM |  |  | Ac-[αAllylPro]DL[B5(4)]D[Phe(3-COOH)]AAF[dGlnR][PyrS2(5)][3Thi][Bta]K-NH2 (bridge 10-14; not fully specified (bridges); printed as Ac-PL3-Asp-Leu-B5-Asp-3COOHF-Ala-Ala-Phe-DGlnR*3-PyrS2-3Thi-BztA-Lys*3-NH2; reading uncertain; also: DGlnR10 and Lys14 marked *3) [I-14]
7 | < 10000 nM | < 50 nM |  |  | Ac-[PL3]D[tBuAla][B5(4)]DDAAF[sAla][PyrS2″][3Thi][Bta][TriAzLys″]-NH2 (triazole 10-14; not fully specified (bridges); printed as Ac-PL3-Asp-Npg-B5-Asp-Asp-Ala-Ala-Phe-sAla*3-PyrS2-3Thi-BztA-TriAzLys*3-NH2; reading uncertain) [I-23]
8 |  | < 50 nM | < 3000 nM |  | Ac-[αAllylPro]DL[B5″]D[Phe(3-COOH)]AAF[GlnR][PyrS2″][3Thi][Bta]K-NH2 (bridge 10-14; reading uncertain; also: PL3-B5 and PyrS2 links not placed, printed as Ac-PL3-Asp-Leu-B5-Asp-3COOHF-Ala-Ala-Phe-GlnR*3-PyrS2-3Thi-BztA-Lys*3-NH2) [I-15]
